Molecular target: T1, GST-JunB (mouse, UniProt P09450 1-344)
T1 sequence: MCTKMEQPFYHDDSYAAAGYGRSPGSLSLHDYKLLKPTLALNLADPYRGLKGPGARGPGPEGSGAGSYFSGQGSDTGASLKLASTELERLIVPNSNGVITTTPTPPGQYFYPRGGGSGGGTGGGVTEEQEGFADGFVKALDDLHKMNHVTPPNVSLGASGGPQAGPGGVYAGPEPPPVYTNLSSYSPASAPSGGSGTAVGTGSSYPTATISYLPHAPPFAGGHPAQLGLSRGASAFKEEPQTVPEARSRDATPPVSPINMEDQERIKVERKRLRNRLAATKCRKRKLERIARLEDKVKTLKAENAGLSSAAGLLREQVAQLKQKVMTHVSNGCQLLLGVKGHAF
Test: EMSA

B1: Erra promoter TRE probe WT (-1305/-1315) (dsDNA)
DNA 1: AGTGAGTGACTCAGAGGACTT
DNA 2: AAGTCCTCTGAGTCACTCACT
- binding result: binds

Source: PMC10954369
